Where two headings read alike, the source gives them in different places.
Tests used:
recombinant MiOMTS [1] = test: In vitro enzymatic assay of recombinant MiOMTS with candidate substrates and SAM as methyl group donor; format: biochemical, Mangifera indica; details: 0.2 mM substrate, 0.01 mM SAM, 30° C. for 30 min; products identified by UHPLC-Orbitrap MS
Description: The complete ORF of MiOMTS cDNA was cloned in pGEX-4T vector and the protein was expressed as GST-tag fusion protein in E. coli BL21 (DE3) cells. The protein was purified using GST affinity chromatography and released from the tag using thrombin. […] The purified protein was assayed for its activity with furaneol, caffeic acid, catechol and protocatechuic aldehyde as substrates and S-adenosyl-L-metheonine (SAM) as methyl group donor. The methylation products of these substrates upon MiOMTS enzymatic reaction were identified and analysed on high resolution mass spectrometer. […] In contrast to furaneol and protocatechuic aldehyde, MiOMTS could not use caffeic acid and catechol as the methyl group acceptor.
(§1) The in vitro enzymatic assays were carried out in the lysis buffer containing appropriate amount of protein, 0.2 mM substrate and 0.01 mM S-adenosylmetheonine (SAM) in a final volume of 500 μl reaction. The reaction was incubated at 30° C. for 30 min. For the determination of optimum pH for the enzyme activity, the assays were performed in 50 mM citrate buffer (pH 4.0 and 5.0), 50 mM phosphate buffer (pH 6.0, 6.5, 7.0 and 7.5) and 50 mM Tris buffer (pH 8.0, 8.5 and 9.0) keeping other components in the assay same as above. Similarly, for optimum temperature the assays were performed at 15, 20, 25, 30, 35 and 40° C. Assay products were extracted twice with ethyl acetate; the organic layers were pooled, dried in a concentrator and constituted with methanol. An Accela™ ultra high performance liquid chromatography (UHPLC) system (ThermoFisher, Waltham, USA), coupled online via heated electrospray ionization source (HESI) with a Q-Exactive-Orbitrap mass spectrometer (ThermoFisher), was employed with 20 μL sample injection volume and the chromatograms were obtained by total ion monitoring in a positive ion mode. The products were separated and analysed on Hypercil GOLD C-18 reverse phase column (150 mm×3 mm i. d., particle size 5 μm, Thermo Scientific, Waltham, Mass., USA) with a linear gradient of 95% water acidified with 0.05% formic acid and 5% methanol to 80% methanol and 20% water with the flow rate of […]. The sample manager was maintained at 4° C. Identification of the substrates as well as products were done by comparing the retention time and molecular mass of authentic external standards [furaneol (CAS No. 3658-77-3), mesifuran (CAS No. 4077-47-8), protocatechuic aldehyde (CAS No. 139-85-5) and vanillin (CAS No. 121-33-5)] procured from Sigma Aldrich, USA.

MiOMTS transcripts = details: 5DAH ethylene treated vs 20DAH conventionally ripened
Description: Quantitative real-time PCR was performed using Fast Start Universal SYBR Green master mix (Roche Inc. Indianapolis, Ind., USA) and elongation factor 1α as an endogenous control employing the primers mentioned earlier (Pandit et al., 2010). Transcripts of MiOMTS were amplified using primers;
Quantification was done by ViiA™ 7 Real-Time PCR System (Applied Biosystems, CA, USA) having thermal cycle programme of initial denaturation at 95° C. for 10 min with subsequent 40 cycles of 95° C. for 3 sec and 60° C. for 30 sec followed by a dissociation curve analysis of transcripts. […] The quantification was done for three independent biological replicates separately, each of which was represented by at least three technical replicates. […] The uniformity of expression across the tissues was monitored using elongation factor 1α (EF1α) gene as an endogenous control.
To get better understanding of synthesis of mesifuran during late ripening stages of Alphonso mango and its regulation at transcriptional level, the transcripts of MiOMTS were profiled during the conventional ripening of Alphonso mango. […] To further assess this at transcript level, the transcripts of MiOMTS were analyzed in the fruits which were subjected to the postharvest ethylene treatment.

recombinant MiOMTS [2] = test: Optimum pH and temperature for the activity of recombinant MiOMTS using furaneol as a substrate; format: biochemical, Mangifera indica
Description: In order to evaluate the optimum biochemical conditions for the activity of recombinant MiOMTS, assays were performed at varied pH and temperatures using furaneol as a substrate. […] In case of temperature, optimum activity was detected at 25° C., with retention of 60% activity at 30° C.
as §1

O=C(O)/C=C/c1ccc(O)c(O)c1 [caffeic acid]
use of substrate as methyl group acceptor (methylation) by MiOMTS (recombinant MiOMTS [1]): could not use

Oc1ccccc1O [catechol]
use of substrate as methyl group acceptor (methylation) by MiOMTS (recombinant MiOMTS [1]): could not use

C=C [ethylene]
MiOMTS transcript abundance, fold higher than conventionally ripened fruits (MiOMTS transcripts; pulp): 19 fold | MiOMTS transcript abundance, fold higher than conventionally ripened fruits (MiOMTS transcripts; skin): 82 fold

CC1=C(O)C(=O)C(C)O1 (centres unmarked) [furaneol, 4-hydroxy-2,5-dimethyl-3(2H)-furanone]
use of substrate as methyl group acceptor (methylation) by MiOMTS (recombinant MiOMTS [1]): successfully used for methylation

O=Cc1ccc(O)c(O)c1 [protocatechuic aldehyde]
use of substrate as methyl group acceptor (methylation) by MiOMTS (recombinant MiOMTS [1]): successfully used for methylation

B1: MiOMTS: O-methyltransferase enzyme protein from Mangifera indica, having SEQ ID No.3, recombinantly expressed in E. coli (protein)
chain: MGSLEVKTLLEGQAEVWQYMFGFADSMVLKSAVELRLADIIHSYGGPMSLSQIASKIDSASPNIPYLGRIMRMLARKGVFGAHRPSEGGDTTYGLTHISTWLRHDSELSLAPMILMENNLWQLAPWHYLSQCVKQGGIAFKKAHGCEMWDFASQNPEFNKLFNDALACTTKIVMRAFLSQYKEGFNNVRSLVDVGGGTGGELAEILKTYPHMKGINFDLPHVVATAPEYDGVSNVGGNMFDAIPNADVIFMKWILHDWSDEACVKILKNCRKAIPEKTGRVVLVEIVLQENGDNMFGNMDVVFDLLMFAHTTGGKERTEPEWKKLLEEGGFPRYNIINIPALPSIIEAYPL
modifications: O-methyltransferase enzyme protein sequence; O-methyltransferase peptide or enzyme sequence
optimum pH for activity (recombinant MiOMTS [2]): 7.0 | optimum temperature for activity (recombinant MiOMTS [2]): 25 °C | reduction in the activity (recombinant MiOMTS [2]; 20° C.): more than 50% | retention of activity (recombinant MiOMTS [2]; 30° C., relative to 25° C.): 60% | activity (recombinant MiOMTS [2]; 40° C.): complete inactivation | activity (recombinant MiOMTS [2]; pH 4): no activity was detected | activity (recombinant MiOMTS [2]; pH 5): no activity was detected | retention of activity (recombinant MiOMTS [2]; pH 6.0, relative to pH 7.0): 70% | retention of activity (recombinant MiOMTS [2]; pH 8.0, relative to pH 7.0): 90% | reduction in the activity (recombinant MiOMTS [2]; pH 8.5): more than 50% | activity (recombinant MiOMTS [2]; pH 9): no activity was detected

Source: patent US10563181B2, “Molecular cloning and expression of cDNA encoding O-methyltransferase isolated from Mangifera indica” (COUNCIL OF SCIENTIFIC & INDUSTRIAL RESEARCH, priority 2015, dated 2020)
